From the supplement of paper PMC12042874
± gives the uncertainty stated by the source.

Assay: amyloid nucleation score (Sup35N fusion, yeast selection) (log enrichment); library NNK3; higher = more nucleation; inactive = no reads after selection
In short: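 Output and input plasmid inserts were sequenced by Illumina after psi-negative yeast carrying Sup35N fused to peptides of 20 random codons had been induced 24 hours with 100 μM copper sulfate and grown 7 days at 30°C on medium lacking adenine and uracil. The nucleation score is the DiMSum log enrichment of output over input reads, centred on the mode score of non-aggregating sequences. Sequences with under 100 input reads were excluded.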

| Substance | amyloid nucleation score |
| --- | --- |
| SLIYTRFGSTSWCSKNF | 1.53 ± 0.14 |
| HVNSMA | inactive |
| VGFILWFGGHCGS | 0.659 ± 0.23 |
| GVLSLLFSYIIVYEWKEMGN | inactive |
| LMLIFRLNCG | 1.62 ± 0.097 |
| NDFCLIYYICGS | 0.743 ± 0.17 |
| YAVCSSLKYLIVESSKLTSV | 0.038 ± 0.36 |
| VTFLHGCIDFAGSYSAGSSD | inactive |
| VLVLAMITFYNLYMYYDVGR | inactive |
| AGWCYFASSVLVRTSWSQCA | inactive |
| TYMTYERVYL | inactive |
| NLEGRKRLMILVFKCCELAI | inactive |
| DYLVFFRPLFNSIDSHWIRS | inactive |
| WFVRIIQLIT | inactive |
| LFSLIVNTRLETLEFKGQIP | 1.02 ± 0.11 |
| IRPWQLCMSKLSHIRRATPY | inactive |
| RLFLTVHPTDSILENEAV | inactive |
| VAMRDERGLFNRLWLRVFV | inactive |
| YLCWAFDTMVSGDRGPRSC | -0.102 ± 0.81 |
| ITRLNSMAMCYLIRFLS | inactive |
| LMKFFINVKVSGGVTCVRIN | inactive |
| WRFYGYI | inactive |
| TRERWTTVYLNKLFLLCYSD | inactive |
| GCTCQ | 1.21 ± 0.15 |
| PTLCNRGLACDEHSHR | inactive |
| QEIRTVTGALTDTWIVFICR | inactive |
| FSRFIRQ | 0.677 ± 0.15 |

| Substance | amyloid nucleation score |
| --- | --- |
| YRVRLCNGSCAQVWCLIRPP | inactive |
| CAHVSFKLVFSINWWSNLLN | inactive |
| TTDCIESVRDG | -0.659 ± 1.4 |
| CFNGRCARLYISIIQVIELS | inactive |
| EKTWKDWTHLSGRKRMI | inactive |
| GGWIY | inactive |
| GELPLRVKVKSFHTDTSLRK | 0.614 ± 0.29 |
| YEAYV | inactive |
| TLLFY | inactive |
| LFNGSSFITCSRTLGVL | inactive |
| EFSYISVCRLQLLMHTKIWD | 1.43 ± 0.14 |
| SMVVERGNQRLRSTYYADCV | inactive |
| LEYLKV | inactive |
| CLLYSYCCPRKIVN | inactive |
| MDITWIKVVHNIHQTVRSKF | 1 ± 0.22 |
| VLRGHSMHRSMGLWLA | inactive |
| IVSLSLVMSTDLC | 0.834 ± 0.24 |
| GMVMVLQTTRYNCHMMRELQ | inactive |
| WMFSRL | inactive |
| VGRSNH | inactive |
| VEWMFTEMSVCLE | inactive |
| ELRSL | inactive |
| RYHYLSSLSMNVNTGELWMD | inactive |
| SFNMDYHMWIEQGSRWVFTT | inactive |
| NIIFRTW | inactive |
| DKFLFLCMG | inactive |
| SVLFSLYSSLSYV | 0.548 ± 0.2 |

| Substance | amyloid nucleation score |
| --- | --- |
| SWVCCF | inactive |
| LIYRHLGYCYNRGCWLVSWH | inactive |
| WDNITRNWRSCPHQMSLRYL | -0.148 ± 1 |
| LTSMI | inactive |
| LSIYYEFFLSETNFCYMLRC | 0.766 ± 0.15 |
| NFMPNKYCNVELVFWGDLGI | 1.59 ± 0.12 |
| TSKRSYVSTGYTNWFTFRI | inactive |
| WKGWSFNLLLRGILQAIIAS | inactive |
| RPKPNRSRTIASQLETKSGW | -0.727 ± 1.1 |
| RCNLGTAAHFCKY | inactive |
| VLSQRVPQMHMTNGVTEASV | inactive |
| IYIKCFNVSFLRSADWSKCA | inactive |
| IVVVAFKSPSV | 0.217 ± 0.32 |
| RTFWNSYWTGMVLRADWIMR | inactive |
| SVYQDCTGGNIPQFGSLAD | inactive |
| NWENILGDSYLCVKWSL | inactive |
| WHTLLDCGVGEFWS | inactive |
| RYLLIPAVGLK | inactive |
| SCRLSISFTGAGNVRCAKMM | inactive |
| SGSNILMEWNCYRARLCRGS | inactive |
| SIYDSVFKMFCVWIVTSVLF | inactive |
| FNISIRVDIVISICNNVVFN | 0.596 ± 0.19 |
| VGLIWVVSFIDKNSYGWSGT | inactive |
| YHEGLYCGWSYNNCYLTFIG | 0.821 ± 0.25 |
| KKYLTNVDLNVSN | inactive |
| GVSMERLKFDIVL | inactive |
